Source: patent US20150158933A1

Target: natural VIF protein on the surface of T1 human cells infected with HIV-1 strain IIIB (HIV-1 strain IIIB) (UniProt P69723)
Test: flow cytometry on HIV-1 IIIB infected T1 cells, 1:100

UniProt P69723, sequence (P69723 whole entry): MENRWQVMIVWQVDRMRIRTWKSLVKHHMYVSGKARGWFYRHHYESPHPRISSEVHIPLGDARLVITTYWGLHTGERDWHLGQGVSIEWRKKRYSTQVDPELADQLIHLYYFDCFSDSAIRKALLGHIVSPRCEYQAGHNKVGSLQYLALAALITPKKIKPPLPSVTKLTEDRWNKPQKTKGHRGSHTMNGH

**Q.** With Isotype control (antibody) as the substance, how does the MFI read?
**A.** The MFI was 971.
